The supplement of paper PMC7125110
± gives the standard error. This sample holds only a part of the variants without activity.

B1: glmS ribozyme (parent)
chain: AUAAAAGCGCCAGAACUACAGAAAUGUAGUUGACGAGGAGGAGGUUUAUCGAAUUUUCGGCGGAUGCCUCCAAA

Columns and labels:
Conditions in all cases: with glucosamine-6-phosphate
glucosamine-6-phosphate [1] = variants of: B1; experiment: self-cleavage kobs at 160 uM GlcN6P; higher = faster cleavage; RNA array
In short: (§1)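 The measurements used barcoded ribozyme variants on sequenced MiSeq chips, transcribed in situ by E. coli RNA polymerase and tracked at 37 °C with a hybridised Cy3 probe. Glucosamine-6-phosphate, 40 μM to 10 mM in HEPES/KCl/Mg(OAc)2 buffer, was flowed in while tiles were imaged over ~14 h. Baseline-normalised signals, also normalised to non-cleaving reference variants, gave per-tile medians that were fit to one- or two-exponential decays for kobs. kcat and KM resulted from weighted Michaelis–Menten fits across concentrations.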

glucosamine-6-phosphate [2] = variants of: B1; experiment: self-cleavage kobs at 10000 uM GlcN6P; higher = faster cleavage; RNA array
In short: as §1

glucosamine-6-phosphate [3] = variants of: B1; experiment: self-cleavage kobs at 640 uM GlcN6P; higher = faster cleavage; RNA array
In short: as §1

glucosamine-6-phosphate [4] = variants of: B1; experiment: self-cleavage kobs at 2500 uM GlcN6P; higher = faster cleavage; RNA array
In short: as §1

Variant	self-cleavage kobs at 160 uM GlcN6P (glucosamine-6-phosphate [1]) [s⁻¹]	self-cleavage kobs at 10000 uM GlcN6P (glucosamine-6-phosphate [2]) [s⁻¹]	self-cleavage kobs at 640 uM GlcN6P (glucosamine-6-phosphate [3]) [s⁻¹]	self-cleavage kobs at 2500 uM GlcN6P (glucosamine-6-phosphate [4]) [s⁻¹]
A6G C16U A39C	< 1e-05	6.06e-05 ± 9e-06		
U45G U47G	0.000328 ± 9.1e-05		0.00314 ± 0.00086	0.00347 ± 0.00055
A42U U55A G60A C71G	< 1e-05		< 1e-05	< 1e-05
A42U C61A	< 1e-05	< 1e-05	< 1e-05	< 1e-05
C8G G63A C70G	< 1e-05		< 1e-05	< 1e-05
U31G G51C U57C	< 1e-05		< 1e-05	< 1e-05
A39G G41A G59U G60U	< 1e-05			
U30G U47G	0.000169 ± 4.9e-05		0.00043 ± 0.00012	0.00098 ± 0.0002
A52U G60C	< 1e-05	< 1e-05	< 1e-05	
G38U G62C	< 1e-05		< 1e-05	
A14U A15C A48C U56A C67A	< 1e-05			
C50G A52U U56G A64U	< 1e-05		< 1e-05	< 1e-05
C16G A36U	< 1e-05		< 1e-05	< 1e-05
C10G G63C U65G	< 1e-05			< 1e-05
G9C U56C C67U C71G	< 1e-05		< 1e-05	< 1e-05
G32C G38A C50G	0.000156 ± 5.3e-05		0.000119 ± 3e-05	8.89e-05 ± 2.7e-05
U49C G51C G60C C68U	< 1e-05		< 1e-05	< 1e-05
U30C U69A	5.29e-05 ± 1.5e-05	2.76e-05 ± 6.9e-06	0.000111 ± 3e-05	5.71e-05 ± 1.2e-05
C8U G37C A39G	< 1e-05	< 1e-05	< 1e-05	< 1e-05
G43U C61G C71U	< 1e-05			
A12G G38U A52U A64U	< 1e-05		< 1e-05	< 1e-05
G38A A39U	< 1e-05		< 1e-05	

Variant	self-cleavage kobs at 160 uM GlcN6P (glucosamine-6-phosphate [1]) [s⁻¹]	self-cleavage kobs at 10000 uM GlcN6P (glucosamine-6-phosphate [2]) [s⁻¹]	self-cleavage kobs at 640 uM GlcN6P (glucosamine-6-phosphate [3]) [s⁻¹]	self-cleavage kobs at 2500 uM GlcN6P (glucosamine-6-phosphate [4]) [s⁻¹]
C10U G40U G66U C67U	< 1e-05			< 1e-05
C10G G32C A52U	< 1e-05		< 1e-05	< 1e-05
A53G A64U U69G	0.000191 ± 6.9e-05		0.000772 ± 0.00022	0.000517 ± 0.00019
A39C G40C A52G	< 1e-05		< 1e-05	
A15C C61U A64U	< 1e-05			
C8A A12U C16G G41A C68A	< 1e-05		< 1e-05	< 1e-05
G37A G38U U65C	< 1e-05	< 1e-05		
A33U C58U	< 1e-05		< 1e-05	
A15C A53C C68U	< 1e-05			
C10U G43C U47C A52C U65C G66A C70G	< 1e-05		< 1e-05	
C16G G35C A39G G60U C61U C68U C71A	< 1e-05		< 1e-05	< 1e-05
G38U G40U A53C C61G A64G C68A	< 1e-05		< 1e-05	
A6U A14G A15U U31G U55G	< 1e-05		< 1e-05	< 1e-05
C8G G38A	< 1e-05	< 1e-05	< 1e-05	< 1e-05
C8U G9C U31G A33C	< 1e-05		< 1e-05	< 1e-05
G35A C50G G59C U65G	4.37e-05 ± 1.9e-05		< 1e-05	
U31C C58A A64C	< 1e-05			< 1e-05
G41U U65A C68G	< 1e-05			< 1e-05
G43A C61G C67U C70U	< 1e-05		< 1e-05	
A64U C70A	< 1e-05	< 1e-05		
A33U A36C G43A C70G	< 1e-05		< 1e-05	< 1e-05
G9U C16G G32U G38A A42G	< 1e-05			

Variant	self-cleavage kobs at 160 uM GlcN6P (glucosamine-6-phosphate [1]) [s⁻¹]	self-cleavage kobs at 10000 uM GlcN6P (glucosamine-6-phosphate [2]) [s⁻¹]	self-cleavage kobs at 640 uM GlcN6P (glucosamine-6-phosphate [3]) [s⁻¹]	self-cleavage kobs at 2500 uM GlcN6P (glucosamine-6-phosphate [4]) [s⁻¹]
C10G G32C A48U C61G	< 1e-05		< 1e-05	
G32U G38U G43U A53U	< 1e-05		< 1e-05	
G29A A33G	< 1e-05	< 1e-05	< 1e-05	< 1e-05
G7U C10U G35A C68G	0.000125 ± 5.5e-05	0.000284 ± 0.00012		
A53C G60U A64U U65G	< 1e-05		< 1e-05	
C8G G51A U55G	< 1e-05		< 1e-05	
A12G A36U C50G A64U C68U	6.37e-05 ± 2.6e-05			
G35C U46A U56A C61U C68U	< 1e-05			< 1e-05
A39G G43U C58A	< 1e-05		< 1e-05	< 1e-05
C10U U30C	< 1e-05			< 1e-05
G51A G66A	< 1e-05		< 1e-05	
G59U G60A	< 1e-05		< 1e-05	
U31G G44U G51U	< 1e-05			
C10A G35C C67U	< 1e-05			< 1e-05
A12G A52U G66U	< 1e-05		< 1e-05	
G51U A53U	< 1e-05	< 1e-05	< 1e-05	< 1e-05
A6U G43C U57G C67U	< 1e-05	< 1e-05		< 1e-05
G43C A52C U57C	< 1e-05		< 1e-05	
G29C A36U G43C	< 1e-05		< 1e-05	
A14C U47G C70A	6.05e-05 ± 2.8e-05		0.000114 ± 3.4e-05	6.72e-05 ± 1.5e-05
G43U G59U G63U C68A	< 1e-05		< 1e-05	< 1e-05
G43A G44A U47A	< 1e-05			

Variant	self-cleavage kobs at 160 uM GlcN6P (glucosamine-6-phosphate [1]) [s⁻¹]	self-cleavage kobs at 10000 uM GlcN6P (glucosamine-6-phosphate [2]) [s⁻¹]	self-cleavage kobs at 640 uM GlcN6P (glucosamine-6-phosphate [3]) [s⁻¹]	self-cleavage kobs at 2500 uM GlcN6P (glucosamine-6-phosphate [4]) [s⁻¹]
A12G G29A G41C	< 1e-05	< 1e-05	< 1e-05	< 1e-05
G7A C50A G51A	< 1e-05		< 1e-05	< 1e-05
C11G G29U U69G	0.000155 ± 3.5e-05		0.000133 ± 3.6e-05	
U30A G35C	< 1e-05	< 1e-05	< 1e-05	< 1e-05
A6U C10A A39G G40C C61G C67G	< 1e-05		< 1e-05	< 1e-05
U45C A53C C67U	< 1e-05		5.23e-05 ± 1.6e-05	6.03e-05 ± 1.8e-05
C10A G41C U46G C68U	< 1e-05		< 1e-05	< 1e-05
C8A A53U U55G	< 1e-05		< 1e-05	
U30C G40U U65G	< 1e-05			
G51U C61G C71G	0.000101 ± 2.2e-05		0.000494 ± 0.00014	9.55e-05 ± 2.1e-05
C8G A39U U69A	< 1e-05			
C16U C58U	< 1e-05	9.48e-05 ± 8.5e-06		2.45e-05 ± 6.4e-06
G29A A39U G40A	7.25e-05 ± 2.4e-05		0.000163 ± 5.7e-05	0.000397 ± 0.0001
C16A G35U G37U U65G	< 1e-05		< 1e-05	
A14C C50G	5.43e-05 ± 1.5e-05		0.000625 ± 0.00028	4.32e-05 ± 1.3e-05
A48C G60A C61A	< 1e-05			
A12C U31G U47A	0.000155 ± 5.6e-05		0.000707 ± 0.00032	
G44U U49C	< 1e-05	< 1e-05	< 1e-05	
C8U A33C C71G	< 1e-05			
C34G U46A	< 1e-05	< 1e-05		< 1e-05
C16A G29C C58U	< 1e-05			
C11A G43U U49C C61A G63C	< 1e-05			< 1e-05

Variant	self-cleavage kobs at 160 uM GlcN6P (glucosamine-6-phosphate [1]) [s⁻¹]	self-cleavage kobs at 10000 uM GlcN6P (glucosamine-6-phosphate [2]) [s⁻¹]	self-cleavage kobs at 640 uM GlcN6P (glucosamine-6-phosphate [3]) [s⁻¹]	self-cleavage kobs at 2500 uM GlcN6P (glucosamine-6-phosphate [4]) [s⁻¹]
A6G A64G C67G	< 1e-05		< 1e-05	< 1e-05
U30A G40C U49G	< 1e-05		< 1e-05	< 1e-05
G9A C61G	< 1e-05		< 1e-05	
G29C U31C A33C A36C A53U	< 1e-05			< 1e-05
G9C U30G U45A	< 1e-05			
G9U C10U C16U	< 1e-05			< 1e-05
U31G U49C C67U	< 1e-05			
A52G C61U C68G	0.000141 ± 4.2e-05		0.000189 ± 6.4e-05	
G9U U30G G35U G51A	< 1e-05		< 1e-05	
C34U C61G	< 1e-05	< 1e-05	< 1e-05	
A33G G35A A36C A64G	< 1e-05			
A36C A52C	< 1e-05	< 1e-05		
A14G A39C G40U U46A A53C	< 1e-05			< 1e-05
G35C U47G U55G	< 1e-05	< 1e-05		
C10G C50G C67U	9.87e-05 ± 2.3e-05			0.000267 ± 5.1e-05
G35C C70U	< 1e-05	< 1e-05	< 1e-05	
A6C A36G U47G	< 1e-05		< 1e-05	
A12G G35U A42C A48C U57C	< 1e-05			
A14C A36G C58U	< 1e-05			
